In publication PMC4151172:

Biological target: HLA-DR1 (HLA-DRB1*01:01), soluble recombinant MHCII (human)
Assay: fluorescence polarisation

“HA(306-318), unlabeled influenza hemagglutinin peptide” gave an IC50 of 25 nM.
